The text below walks through data of article PMC6971037, “Molecular basis for histidine N3-specific methylation of actin H73 by SETD3” (Cell Discovery, 2020).

Assay [1] has as its target T1, SETD3 residues 20–494 (as labelled for the ITC titrations) (human, UniProt Q86TU7 20-494).
T1 construct: also called SETD3_(20–494)
T1 sequence (looked up): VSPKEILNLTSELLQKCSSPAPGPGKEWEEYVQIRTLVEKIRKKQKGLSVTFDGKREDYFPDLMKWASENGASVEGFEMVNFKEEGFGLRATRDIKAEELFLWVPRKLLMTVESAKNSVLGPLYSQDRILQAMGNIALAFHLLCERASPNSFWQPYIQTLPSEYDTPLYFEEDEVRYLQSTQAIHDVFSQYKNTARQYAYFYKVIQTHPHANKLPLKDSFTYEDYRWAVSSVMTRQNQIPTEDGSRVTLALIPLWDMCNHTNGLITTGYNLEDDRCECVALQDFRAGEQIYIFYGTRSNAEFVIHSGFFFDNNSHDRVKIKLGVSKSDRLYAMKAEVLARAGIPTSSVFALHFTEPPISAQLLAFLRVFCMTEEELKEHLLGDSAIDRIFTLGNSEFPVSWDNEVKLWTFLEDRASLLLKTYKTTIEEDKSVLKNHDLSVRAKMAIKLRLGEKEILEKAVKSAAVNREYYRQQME
Kind of assay: ITC; SETD3 titrated with actin peptide in the presence of SFG (sinefungin). As to conditions: both partners purified. Background: ITC needs no label: the signal is the heat of the interaction.

Assay [2] concerns the target T1, SETD3 residues 20–494 (as labelled for …). Kind of assay: ITC; SETD3 titrated with actin peptide in the presence of SAH. As to conditions: both partners purified.

B1: β-actin peptide (60–81) (peptide, UniProt P60709 60-81, looked up)
peptide: SKRGILTLKYPIEHGIVTNWDD
notes: β-actin, residues 60-81; residues 66-81 were built in the structure; also called wild-type actin peptide
Broadly, the Kd is the equilibrium constant for the complex coming apart. Turning to B1, the Kd in assay [1] is 5010 nM; in assay [2], 150 nM.

B2: H73A mutant actin peptide (peptide, UniProt P60709 60-81, looked up)
peptide: SKRGILTLKYPIEAGIVTNWDD
notes: β-actin peptide with H73A; The limits 60-81 are those of the wild-type peptide; also called H73A actin peptide; H73A mutant peptide
Take B2: the dissociation constant (Kd) in assay [1] is 1000 nM; in assay [2], 810 nM.
